These results are taken from US12534533B2, “Anti-chemokine like receptor 1 humanized antibodies and their therapeutic applications” (OSE IMMUNOTHERAPEUTICS, priority 2019, dated 2026).

Assay [1] relates to colitis induced by TNBS. Briefly: acute inflammatory colitis model induced by TNBS. Conditions: RvE1 1 μg per mouse daily, 2G1 10 μg per mouse; FIG. 3. Format: in vivo, mice. The procedure:
FIG. 3. Effect of an anti-CMKLR1 antibody on a mice acute inflammatory colitis model induced by TNBS. Mice received 200 μL of the haptenating agent TNBS at 5% in 50% ethanol on day 0 and then were injected with isotype control hIgG1 (10 μg per mouse) (x), RvE1 (1 μg per mouse) daily (●), or 2G1 antibody (10 μg per mouse) three times (□) for 5 days, or non-treated (wild type animals) (▴). Mice were sacrificed colon length was measured in each condition.
Colitis was induced in 8-10 weeks-old-C57Bl/6 male mice by intrarectal injection of 200 μL of the haptenating agent TNBS at 5% in 50% ethanol on day 0. Treatments were injected intra-peritoneally; RvE1 (1 μg per mouse) daily for three days, or 2G1 antibody (10 μg per mouse) twice for 3 days. Colitis follow-up consisting of body weight and stool score (0: normal stool; 4: blood in stool) parameters were performed daily (data not represented). When mice are euthanized, colon length representing the pathology severity was measured.

For assay [2], the target named is T1, CMKLR1 receptor (CHO-K1 CMKLR1 Gi cells) (Homo sapiens, UniProt Q99788).
T1 construct: host or cells: CHO-K1
T1 sequence (Q99788 1-373): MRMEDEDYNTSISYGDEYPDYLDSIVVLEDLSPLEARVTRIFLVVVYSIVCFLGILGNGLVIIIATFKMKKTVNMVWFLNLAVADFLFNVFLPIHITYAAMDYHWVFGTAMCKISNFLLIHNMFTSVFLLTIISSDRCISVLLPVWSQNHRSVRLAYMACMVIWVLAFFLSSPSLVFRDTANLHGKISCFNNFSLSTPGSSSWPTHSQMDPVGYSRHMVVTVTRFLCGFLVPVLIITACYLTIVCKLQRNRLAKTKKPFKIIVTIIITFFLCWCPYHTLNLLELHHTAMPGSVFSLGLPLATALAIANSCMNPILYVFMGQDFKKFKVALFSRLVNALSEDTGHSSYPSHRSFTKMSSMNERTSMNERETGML
Briefly: competition with Chemerin in the production of cAMP by CMKLR1 receptor. Format: cell-based. Conditions: antibody 1 μM to 1 nM, chemerin 2 nM; FIG. 18A. The protocol:
The day before the experiment CHO-K1 CMKLR1 Gi cells (Discover'X ref 95-0080C2) were plated in pre-warmed cell reagent then plated in a 96-well plate at 100 μl/well of cells as (Discover'X ref 15-103) and incubated 24 hours at 37° C., in a 5% CO2 humidified incubator for 24 hours.
For the detection cAMP, antibody reagent and cAMP working detection solution was added to the plate for 1 hour at room temperature, then cAMP solution A was added, and cells incubated 3 hours at room temperature in the dark. Bioluminescence was read with a plate reader with 0.5s integration.

For assay [3], the target named is T2, CMKLR1 receptor (CHO-K1 CMKLR1 cells) (Homo sapiens, UniProt Q99788).
T2 construct: host or cells: CHO-K1
T2 sequence (Q99788 1-373): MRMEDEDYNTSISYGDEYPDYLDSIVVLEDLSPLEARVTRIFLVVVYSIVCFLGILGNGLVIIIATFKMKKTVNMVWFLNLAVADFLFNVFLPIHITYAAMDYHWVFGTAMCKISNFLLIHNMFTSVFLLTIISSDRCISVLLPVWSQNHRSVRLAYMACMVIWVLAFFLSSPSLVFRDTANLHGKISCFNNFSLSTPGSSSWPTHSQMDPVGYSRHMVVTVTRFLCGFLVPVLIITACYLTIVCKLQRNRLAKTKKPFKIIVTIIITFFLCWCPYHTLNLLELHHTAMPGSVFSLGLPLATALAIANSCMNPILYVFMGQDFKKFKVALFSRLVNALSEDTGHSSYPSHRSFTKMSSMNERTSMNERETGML
The assay can be described thus: competition assay, Chemerin-dependent beta-arrestin recruitment by CMKLR1 receptor. Format: cell-based. As to conditions: antibody 1 μM to 1 nM, Chemerin 2 or 6 nM; FIG. 18B. The protocol: The day before the assay, CHO-K1 CMKLR1 cells (Discover'X ref 93-0313E2) were plated in pre-warmed cell reagent then plated in a 96-well plate at 100 μl/well of cells as (Discover'X ref 15-103) and incubated […] at 37° C., in a 5% CO2 humidified incubator. The anti-CMLKR1 antibody was diluted (22× in 7-point series of 3-fold dilutions from 1 μM to 1 nM) and cells were incubated 30 min at 37° C. with the antibody. […] The luminescence was measured after Working Detection Solution addition to the cells with a plate reader with 0.5 s integration.
On the technique in general: Activated receptors often draw arrestin, which recruitment assays turn into a signal.

In assay [4] the test system is Hepa 1.6 cells. Briefly: Hepatocarcinoma model (HCC), orthotopic murine hepatoma. Format: in vivo, mice. Conditions: anti-CMKLR1 0.8 mg/kg three times per week, anti-PD1 8 mg/kg, 2 weeks; followed sixty days; FIG. 20. The protocol: FIG. 20. Effect of an anti-CMKLR1 antibody on a Hepatocarcinoma mice model (HCC model). Anti-tumor effect of anti-CMKLR1 antibody (2G1, 0.8 mg/kg) i.p. administration three times a week for 2 weeks in combination (▴) or not (●) with two injections on day 4 and 8 of anti-PD1 mAb (RMP1-14 clone, 8 mg/kg) or with injections (twice a week) of anti-PD-1 antibody alone (Δ). Mice have been treated during 2 weeks in an orthotropic model of murine hepatoma (2.5.10^6 of Hepa 1.6 cells injected through the portal vein on day 0). Isotype control antibody was used at 0.8 mg/kg three times a week for 2 weeks. Mice response were considered partial (PR) when mice survive few days to 1 month after stop of treatment or complete (CR) when mice survive over 1 month or cured when they survive three times longer than the time necessary to all control mice dye.
Method: Mice were anesthetized with a cocktail of xylazine/ketamine. After a laparotomy, tumoral Hepa 1.6 cells were injected in PBS through the portal vein (2.5·10^6 cells/100 μL) in PBS. The treatment was started 4 days after tumor injection. The anti-CMKLR1 antibody (2G1clone) and the hIgG1 istotype control were injected at 0.8 mg/kg three times per week during 2 weeks. The anti-PD1 monoclonal antibody was injected twice a week during 2 weeks intraperitoneally in PBS (8 mg/kg). […]

Assay [5] has as its system lesions in the central nervous system induced by MOG peptide. The assay can be described thus: autoimmune encephalomyelitis experimental model (EAE). Format: in vivo. From the text: Lesions in the central nervous system were induced by injection of the immunogenic MOG peptide combined with adjuvants.

B1: 2G1: parental chimeric anti-CMKLR1 antibody: heavy chain variable domain SEQ ID No. 37, light chain variable domain SEQ ID No. 49 (antibody, V domains shown)
VH: EVQLVASGGGLVQPGGSLKLSCAASGFTFSSYGMSWVRQTPDRRLELVATINRYGGSTYYPDSVKGRFTISRDNAKNTLYLQMSSLKSEDTAMYYCPRLIYYGNEGDSWGQGTTLTVSS
VL: QIVLTQSPAIMSASPGEKVTMTCSASSSVSFMHWYQQKSGTSPKRWIYDTTKLTSGVPARFSGSGSGTFYSLTISSMEAEDAATYYCQQWNSKPPLTFGPGTKLELKR
As to B1, the colon length entry in assay [1] was “the same as normal animal”. Moreover, in assay [2], the “Chemerin-induced inhibition of forskolin-dependent cAMP production” value is “could not revert this inhibition of production”. In addition, the “chemerin-dependent activation of the beta-arrestin” value in assay [3] is on record as “did not significantly modify chemerin-dependent activation of the beta-arrestin”. For the same molecule, the “survival rate (treated animals with prolonged survival)” value in assay [4] was found to be 15%. Besides, the Weight variation overtime result in assay [5] (curative administration, 1 mg/kg from clinical score 2, FIG. 32A) is listed as “does not lead to the reduction of the weight”. Moreover, the “illness score lower than control” value in assay [5] (ten-day posttreatment) is recorded as “approximately 30%”. Moreover, the illness score result in assay [5] (vs control antibody, FIG. 32B) is reported as “significantly reduced”.
